Experimental data from patent US20250043022A1 (JIANGSU HENGRUI PHARMACEUTICALS, published 2025).

Experiments:
[1] = target: T1, human PSMA on cells (Cho-hPSMA, CHO-K1 cells overexpressing full-length human PSMA) (human, UniProt Q04609 1-750); assay: cell ELISA, Cho-hPSMA; antibody at 6.25 nM
T1 construct: whole, on cells; also called cell surface PSMA; PSMA-expressing Lncap cells
Method: (§1) Experiment 2: Cells were cultured and inoculated onto a cell plate using the same method as in Experiment 1. The antibodies were serially diluted, and the antibody solutions were added to the cell plate at 100 μL/well. The plate was incubated at 4° C. for 1 h and then washed. An HRP-Goat Anti-human IgG (H+L) secondary antibody dilution (1:8000) was added to the cell plate at 100 μL/well, and the plate was incubated at 4° C. for 1 h and then washed by centrifugation. After color development with TMB, the reaction was stopped with 0.1 M sulfuric acid, and OD450 values were measured.
(§2) Experiment 4: The binding activity of bispecific antibodies was measured using the method of experiment 2.

[2] = target: T1, human PSMA on cells (Cho-hPSMA, CHO-K1 …); assay: cell ELISA, Cho-hPSMA; antibody at 25 nM
Method: as §1, §2

[3] = target: T1, human PSMA on cells (Cho-hPSMA, CHO-K1 …); assay: cell ELISA, Cho-hPSMA; antibody at 1.5625 nM
Method: as §1, §2

[4] = target: T1, human PSMA on cells (Cho-hPSMA, CHO-K1 …); assay: flow cytometry, Cho-hPSMA; antibody at 4 µg/mL
[5] = target: T1, human PSMA on cells (Cho-hPSMA, CHO-K1 …); assay: flow cytometry, Cho-hPSMA; antibody at 20 µg/mL
[6] = target: T2, human PSMA antigen (Acro, Cat. No. PSA-H52H3; Lys44-Ala750) (human, UniProt Q04609 44-750); assay: SPR (Biacore T200, 25 C), antibody captured on Protein A, 1:1 model
T2 construct: range 44-750
Method: Experiment 5: Antibodies were affinity-captured using a Protein A biosensor chip, and human PSMA was then allowed to flow over the chip surface. The association and dissociation curves were obtained by real-time detection of reaction signals using a Biacore T200 instrument at 25° C. After the dissociation in each experimental cycle was complete, the biosensor chip was regenerated by washing with Glycine 1.5. Data fitting was performed using a 1:1 Model. The human PSMA antigen was purchased from Acro (Cat. No. PSA-H52H3; Lys44-Ala750), and the hCD3D&CD3E complex antigen was purchased from Sino Biological (Cat. No. CT038-H2508H).

[7] = target: T1, human PSMA on cells (Cho-hPSMA, CHO-K1 …); assay: flow cytometry, Cho-hPSMA; antibody at 0.8 µg/mL
[8] = target: T1, human PSMA on cells (Cho-hPSMA, CHO-K1 …); assay: flow cytometry, Cho-hPSMA; antibody at 100 µg/mL
[9] = target: T1, human PSMA on cells (Cho-hPSMA, CHO-K1 …); assay: flow cytometry, Cho-hPSMA; antibody at 100 nM
Method: (§3) Experiment 1: Cho-hPSMA was cultured in F12 medium with 10% FBS. The medium to which cells were inoculated was incubated in a 37° C., 5% CO₂ incubator for 2 days, and cells were added to a cell plate at 1×10⁵ cells/well and washed by centrifugation. Antibodies were serially diluted, and the antibody solutions were added to the cell plate at 100 μL/well. The plate was incubated at 4° C. for 1 h and then washed. An AF488-Goat Anti-human IgG Fc fluorescent secondary antibody dilution (1:400) was added to the cell plate at 100 μL/well, and the plate was incubated at 4° C. for 1 h and then washed. PBS was added to the cell plate at 100 μL/well before plate reading.
(§4) Experiment 3: The binding activity of bispecific antibodies was measured using the method of experiment 1.

[10] = target: T1, human PSMA on cells (Cho-hPSMA, CHO-K1 …); assay: flow cytometry, Cho-hPSMA; antibody at 4 nM
Method: as §3, §4

[11] = target: T1, human PSMA on cells (Cho-hPSMA, CHO-K1 …); assay: cell-based or functional assay
[12] = target: T1, human PSMA on cells (Cho-hPSMA, CHO-K1 …); assay: flow cytometry, Cho-hPSMA; antibody at 0.8 nM
Method: as §3, §4

[13] = target: T1, human PSMA on cells (Cho-hPSMA, CHO-K1 …); assay: flow cytometry, Cho-hPSMA; antibody at 20 nM
Method: as §3, §4

T2 sequence (Q04609 44-750 limits assumed): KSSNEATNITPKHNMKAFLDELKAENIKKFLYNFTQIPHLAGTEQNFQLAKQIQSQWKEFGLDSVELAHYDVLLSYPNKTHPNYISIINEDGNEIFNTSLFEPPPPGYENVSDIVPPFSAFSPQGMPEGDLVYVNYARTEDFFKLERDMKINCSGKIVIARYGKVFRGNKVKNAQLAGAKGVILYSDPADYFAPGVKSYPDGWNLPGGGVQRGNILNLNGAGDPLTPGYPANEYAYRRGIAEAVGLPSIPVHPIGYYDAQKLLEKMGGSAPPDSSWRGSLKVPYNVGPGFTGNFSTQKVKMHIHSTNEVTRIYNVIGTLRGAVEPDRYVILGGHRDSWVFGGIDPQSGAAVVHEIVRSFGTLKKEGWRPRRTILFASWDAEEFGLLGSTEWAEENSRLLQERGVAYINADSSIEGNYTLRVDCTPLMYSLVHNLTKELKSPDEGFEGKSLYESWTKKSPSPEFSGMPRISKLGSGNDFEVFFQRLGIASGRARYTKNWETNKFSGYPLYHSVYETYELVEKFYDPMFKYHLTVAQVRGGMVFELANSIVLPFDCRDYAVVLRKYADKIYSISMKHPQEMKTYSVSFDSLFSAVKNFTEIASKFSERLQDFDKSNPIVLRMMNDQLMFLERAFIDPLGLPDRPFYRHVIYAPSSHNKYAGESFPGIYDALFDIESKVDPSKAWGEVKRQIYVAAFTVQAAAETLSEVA
T1 sequence (Q04609 whole entry): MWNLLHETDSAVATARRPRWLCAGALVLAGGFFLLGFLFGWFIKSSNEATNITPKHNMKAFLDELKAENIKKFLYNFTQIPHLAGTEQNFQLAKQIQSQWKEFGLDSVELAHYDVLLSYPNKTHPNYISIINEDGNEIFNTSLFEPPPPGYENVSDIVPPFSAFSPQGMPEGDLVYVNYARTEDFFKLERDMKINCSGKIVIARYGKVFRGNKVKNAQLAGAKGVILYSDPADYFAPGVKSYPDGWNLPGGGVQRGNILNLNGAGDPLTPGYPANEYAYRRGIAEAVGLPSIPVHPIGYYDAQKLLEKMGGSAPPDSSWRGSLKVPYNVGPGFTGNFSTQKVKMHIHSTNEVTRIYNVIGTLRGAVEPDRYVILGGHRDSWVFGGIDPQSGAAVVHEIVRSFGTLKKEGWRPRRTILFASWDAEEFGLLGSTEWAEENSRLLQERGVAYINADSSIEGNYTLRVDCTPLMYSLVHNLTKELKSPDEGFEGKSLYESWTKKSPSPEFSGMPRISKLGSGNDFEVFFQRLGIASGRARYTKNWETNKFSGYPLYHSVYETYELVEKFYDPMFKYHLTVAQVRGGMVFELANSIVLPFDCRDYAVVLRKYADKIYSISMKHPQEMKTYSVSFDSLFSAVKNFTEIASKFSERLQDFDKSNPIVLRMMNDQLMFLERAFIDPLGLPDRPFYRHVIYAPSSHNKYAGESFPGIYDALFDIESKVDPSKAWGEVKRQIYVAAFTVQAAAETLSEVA

| Binder | absorbance [1] | absorbance [2] | absorbance [3] | fluorescence intensity [9] | fluorescence intensity [10] | fluorescence intensity [12] | fluorescence intensity [13] | cytotoxic activity against Lncap, EC50 [11] | cytotoxic activity against Lncap, Maximum lysis rate % [11] | also measured |
| --- | --- | --- | --- | --- | --- | --- | --- | --- | --- | --- |
| 27-F4 (bispecific antibody, PSMA x CD3, Format 4) heavy: not shown light: QIVLTQSPDFQSVTPKEKVTIQCSASSSVSYMYWYQQKPDQSPKPWIYRTSNLASGVPSRFSGSGSGTDYTLTINSLEAEDAATYYCQQYHSYPLTFGQGTKLEIKRTVAAPSVFIFPPSDEQLKSGTASVVCLLNNFYPREAKVQWKVDNALQSGNSQESVTEQDSKDSTYSLSSTLTLSKADYEKHKVYACEVTHQGLSSPVTKSFNRGEC | 0.732 OD450 | 1.05 OD450 | 0.419 OD450 | – | – | – | – | – | – | – |
| 31-F1 (bispecific antibody, PSMA x CD3, Format 1) heavy 1: not shown light 1: DIQMTQSPSSLSASVGDRVTITCRASGNIHNYLAWYQQKPGKAPKLLIYNAETLADGVPSRFSGSGSGTDFTLTISSLQPEDFATYYCQHFWSTPPTFGGGTKVEIKRTVAAPSVFIFPPSDEQLKSGTASVVCLLNNFYPREAKVQWKVDNALQSGNSQESVTEQDSKDSTYSLSSTLTLSKADYEKHKVYACEVTHQGLSSPVTKSFNRGEC heavy 2: not shown light 2: not shown | – | – | – | – | – | – | – | – | – | fluorescence intensity [4]: 7970; fluorescence intensity [5]: 16200; Kd [6]: 1860 pM; koff [6]: 1.84e-05 s⁻¹; kon [6]: 9890 M⁻¹ s⁻¹; fluorescence intensity [7]: 2520; fluorescence intensity [8]: 16500 |
| 43-F4 (bispecific antibody, PSMA x CD3, Format 4) heavy: not shown light: DIQMTQSPSSLSASVGDRVTITCKASQNVHTSVAWYQQKPGKSPKLLIYSASNRYSGVPSRFSGSGSGTDFTLTISSLQPEDVATYYCQQYSSYPLTFGQGTKLEIKRTVAAPSVFIFPPSDEQLKSGTASVVCLLNNFYPREAKVQWKVDNALQSGNSQESVTEQDSKDSTYSLSSTLTLSKADYEKHKVYACEVTHQGLSSPVTKSFNRGEC | 0.527 OD450 | 1.04 OD450 | 0.254 OD450 | – | – | – | – | 6.21 pM | 48% | – |
| 43-F3 (bispecific antibody, PSMA x CD3, Format 3) heavy: not shown light 1: DIQMTQSPSSLSASVGDRVTITCKASQNVHTSVAWYQQKPGKSPKLLIYSASNRYSGVPSRFSGSGSGTDFTLTISSLQPEDVATYYCQQYSSYPLTFGQGTKLEIKRTVAAPSVFIFPPSDEQLKSGTASVVCLLNNFYPREAKVQWKVDNALQSGNSQESVTEQDSKDSTYSLSSTLTLSKADYEKHKVYACEVTHQGLSSPVTKSFNRGEC light 2: not shown | 0.441 OD450 | 0.721 OD450 | 0.227 OD450 | – | – | – | – | 7.39 pM | 49.5% | – |
| 15-F4 (bispecific antibody, PSMA x CD3, Format 4) heavy: not shown light: DIQMTQSPSSLSASVGDRVTITCKASQGVDTAVAWYQQKPGKSPKLLIYWASTRHTGVPDRFSGSGSGTDFTLTISSLQPEDVATYYCQQYSRYPLTFGQGTKLEIKRTVAAPSVFIFPPSDEQLKSGTASVVCLLNNFYPREAKVQWKVDNALQSGNSQESVTEQDSKDSTYSLSSTLTLSKADYEKHKVYACEVTHQGLSSPVTKSFNRGEC | – | – | – | 32200 | 22000 | 8280 | 31400 | 9.63 pM | 63.2% | – |

Second part, led by results:

| absorbance [1] | absorbance [2] | absorbance [3] | fluorescence intensity [9] | fluorescence intensity [10] | fluorescence intensity [12] | fluorescence intensity [13] | Binder | cytotoxic activity against Lncap, EC50 [11] | cytotoxic activity against Lncap, Maximum lysis rate % [11] | also measured |
| --- | --- | --- | --- | --- | --- | --- | --- | --- | --- | --- |
| – | – | – | 21300 | 18700 | 9490 | 20800 | 46-F4 (bispecific antibody, PSMA x CD3, Format 4) heavy: not shown light: DIQMTQSPSSLSASVGDRVTITCKASQSVGTAVAWYQQKPGKAPKLLIYSASSRYTGVPSRFSGSGSGTDFTLTISSLQPEDFADYFCHQYSSYPLTFGGGTKVEIKRTVAAPSVFIFPPSDEQLKSGTASVVCLLNNFYPREAKVQWKVDNALQSGNSQESVTEQDSKDSTYSLSSTLTLSKADYEKHKVYACEVTHQGLSSPVTKSFNRGEC | 2.85 pM | 63.5% | – |
| – | – | – | 23000 | 19400 | 8330 | 23100 | 46-F2 (bispecific antibody, PSMA x CD3, Format 2) heavy 1: not shown light 1: DIQMTQSPSSLSASVGDRVTITCKASQSVGTAVAWYQQKPGKAPKLLIYSASSRYTGVPSRFSGSGSGTDFTLTISSLQPEDFADYFCHQYSSYPLTFGGGTKVEIKRTVAAPSVFIFPPSDEQLKSGTASVVCLLNNFYPREAKVQWKVDNALQSGNSQESVTEQDSKDSTYSLSSTLTLSKADYEKHKVYACEVTHQGLSSPVTKSFNRGEC heavy 2: not shown light 2: not shown | – | – | – |
| – | – | – | 31600 | 12300 | 3930 | 28600 | 46-F1 (bispecific antibody, PSMA x CD3, Format 1) heavy 1: not shown light 1: DIQMTQSPSSLSASVGDRVTITCKASQSVGTAVAWYQQKPGKAPKLLIYSASSRYTGVPSRFSGSGSGTDFTLTISSLQPEDFADYFCHQYSSYPLTFGGGTKVEIKRTVAAPSVFIFPPSDEQLKSGTASVVCLLNNFYPREAKVQWKVDNALQSGNSQESVTEQDSKDSTYSLSSTLTLSKADYEKHKVYACEVTHQGLSSPVTKSFNRGEC heavy 2: not shown light 2: not shown | – | – | – |
